Consider 91 sequences from the supplement of paper PMC9112550, “Optimization of the antimicrobial peptide Bac7 by deep mutational scanning” (BMC Biology, 2022).

In the data set the test system is Escherichia coli TOP10. The data set is described as follows: shrunken log2 fold change of peptide-encoding DNA abundance (4.5 h post-induction vs induction); higher = less antimicrobial activity (less host growth inhibition). The settings on record: time post-induction: 4.5 h; library: site-saturation at positions 5, 18, 19, 20.
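Note: peptides expressed intracellularly from a pBAD plasmid library in pooled LB shake-flask culture, induced with 0.3% L-arabinose, DNA abundance read by NGS, three biological replicates, DESeq2 with apeglm shrinkage.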

As for RRIRDRPPRLPRPRPRPFVGPRP, the “shrunken log2 fold change” value was -0.0346. To RRIRMRPPRLPRPRPRPTCEPRP belongs 0.745. With RRIRERPPRLPRPRPRPVSLPRP, the “shrunken log2 fold change” value was -0.013. For RRIRRRPPRLPRPRPRPYYIPRP, the “shrunken log2 fold change” value is -0.584. For the sequence RRIRLRPPRLPRPRPRPCDAPRP, the “shrunken log2 fold change” value is -0.105. For RRIRYRPPRLPRPRPRPCYAPRP, the “shrunken log2 fold change” value is -0.00203. As for RRIRQRPPRLPRPRPRPNCRPRP, the “shrunken log2 fold change” value is 0.13.

Take RRIRTRPPRLPRPRPRPYMVPRP: the “shrunken log2 fold change” value is -1.93.

Take RRIRVRPPRLPRPRPRPWVIPRP: the “shrunken log2 fold change” value is -0.43.

Turning to RRIRYRPPRLPRPRPRPAFCPRP, the “shrunken log2 fold change” value was -0.1. As to RRIRERPPRLPRPRPRPACGPRP, the “shrunken log2 fold change” value was 0.14. For the sequence RRIRERPPRLPRPRPRPSHSPRP, the “shrunken log2 fold change” value is -1.37.

As to RRIRQRPPRLPRPRPRPVCMPRP, the “shrunken log2 fold change” value was -0.0787. As to RRIRGRPPRLPRPRPRPCGSPRP, the “shrunken log2 fold change” value is 0.107. Regarding RRIRTRPPRLPRPRPRPPMHPRP, the “shrunken log2 fold change” value turned out to be 0.141. For RRIRHRPPRLPRPRPRPHFEPRP the value was 0.0715; for RRIRMRPPRLPRPRPRPDWHPRP, -0.136; for RRIRPRPPRLPRPRPRPRQVPRP, 0.474.

In the case of RRIRWRPPRLPRPRPRPVDDPRP, the “shrunken log2 fold change” value is -0.0142. Turning to RRIRKRPPRLPRPRPRPHHRPRP, the “shrunken log2 fold change” value is -0.0531. Turning to RRIRQRPPRLPRPRPRPIKVPRP, the “shrunken log2 fold change” value worked out at 0.0441. For the sequence RRIRTRPPRLPRPRPRPSGKPRP, the “shrunken log2 fold change” value was -0.0608. For RRIRMRPPRLPRPRPRPFVMPRP, the “shrunken log2 fold change” value is -0.0957. Consider RRIRIRPPRLPRPRPRPVTKPRP, for which the “shrunken log2 fold change” value is -0.359.

As for RRIRCRPPRLPRPRPRPAWWPRP, the “shrunken log2 fold change” value stood at 0.902. On to RRIRDRPPRLPRPRPRPKTLPRP, for which the “shrunken log2 fold change” value was -0.21. RRIRARPPRLPRPRPRPKRMPRP: the “shrunken log2 fold change” value was 0.258. With RRIRVRPPRLPRPRPRPRNHPRP, the “shrunken log2 fold change” value was 0.0133. As for RRIRFRPPRLPRPRPRPYHMPRP, the “shrunken log2 fold change” value was -0.128. To RRIRARPPRLPRPRPRPYHPPRP belongs -0.482; to RRIRHRPPRLPRPRPRPCHLPRP, -0.113. To RRIRWRPPRLPRPRPRPYRYPRP belongs 0.0299; to RRIRRRPPRLPRPRPRPMKRPRP, 0.0474; to RRIRIRPPRLPRPRPRPNNTPRP, -1.09. As to RRIRFRPPRLPRPRPRPGKGPRP, the “shrunken log2 fold change” value is -0.159. Take RRIRRRPPRLPRPRPRPHYQPRP: the “shrunken log2 fold change” value is -0.319.

Consider RRIRRRPPRLPRPRPRPPAIPRP, for which the “shrunken log2 fold change” value stood at 1.03. As to RRIRMRPPRLPRPRPRPHWIPRP, the “shrunken log2 fold change” value is -0.0869. Take RRIRWRPPRLPRPRPRPYQLPRP: the “shrunken log2 fold change” value is -0.26. With RRIRRRPPRLPRPRPRPFTQPRP, the “shrunken log2 fold change” value was -0.223.

RRIRIRPPRLPRPRPRPHMTPRP: the “shrunken log2 fold change” value is -0.64. For RRIRSRPPRLPRPRPRPFWTPRP the value was 0.131. For RRIRIRPPRLPRPRPRPMGEPRP, the “shrunken log2 fold change” value was -0.0442. RRIRLRPPRLPRPRPRPNVKPRP: the “shrunken log2 fold change” value was -0.107. To RRIRMRPPRLPRPRPRPMDLPRP belongs -0.0207. Turning to RRIRARPPRLPRPRPRPAAKPRP, the “shrunken log2 fold change” value was determined as 1.04.

As for RRIRDRPPRLPRPRPRPEVEPRP, the “shrunken log2 fold change” value was found to be 1.68. For RRIRVRPPRLPRPRPRPCQAPRP, the “shrunken log2 fold change” value was -0.0137. As for RRIRERPPRLPRPRPRPVNIPRP, the “shrunken log2 fold change” value was -0.0402. For the sequence RRIRYRPPRLPRPRPRPINEPRP, the “shrunken log2 fold change” value is -0.181.

In the case of RRIRYRPPRLPRPRPRPAHGPRP, the “shrunken log2 fold change” value is 0.1. To RRIRNRPPRLPRPRPRPSSVPRP belongs 0.066. Take RRIRTRPPRLPRPRPRPICFPRP: the “shrunken log2 fold change” value was -0.583.

On to RRIRLRPPRLPRPRPRPMRIPRP, for which the “shrunken log2 fold change” value was found to be 0.269. As for RRIRWRPPRLPRPRPRPQRNPRP, the “shrunken log2 fold change” value stood at 0.0121.

Turning to RRIRGRPPRLPRPRPRPTAWPRP, the “shrunken log2 fold change” value turned out to be 1.84.

As to RRIRFRPPRLPRPRPRPWSSPRP, the “shrunken log2 fold change” value came out at 0.0276. For RRIRPRPPRLPRPRPRPMDGPRP the value was 0.214; for RRIRARPPRLPRPRPRPEVDPRP, 0.935.

Take RRIRDRPPRLPRPRPRPVKSPRP: the “shrunken log2 fold change” value is -0.00931.

For the sequence RRIRFRPPRLPRPRPRPKFFPRP, the “shrunken log2 fold change” value was -0.00377. With RRIRIRPPRLPRPRPRPCMPPRP, the “shrunken log2 fold change” value was -0.908. To RRIRIRPPRLPRPRPRPKERPRP belongs -0.00236.

As to RRIRRRPPRLPRPRPRPYWWPRP, the “shrunken log2 fold change” value was -0.0898. With RRIRARPPRLPRPRPRPKAVPRP, the “shrunken log2 fold change” value is 0.706. As for RRIRQRPPRLPRPRPRPSKEPRP, the “shrunken log2 fold change” value was -0.371.

Consider RRIRPRPPRLPRPRPRPGQEPRP, for which the “shrunken log2 fold change” value was 0.031. In the case of RRIRCRPPRLPRPRPRPKLMPRP, the “shrunken log2 fold change” value was -0.0168. As to RRIRSRPPRLPRPRPRPENEPRP, the “shrunken log2 fold change” value is -0.0857.

Consider RRIRRRPPRLPRPRPRPETFPRP, for which the “shrunken log2 fold change” value was -0.0525. For the sequence RRIRARPPRLPRPRPRPKADPRP, the “shrunken log2 fold change” value came to 0.597. As for RRIRDRPPRLPRPRPRPAHNPRP, the “shrunken log2 fold change” value was -0.206. To RRIRMRPPRLPRPRPRPNFAPRP belongs 0.318; to RRIRTRPPRLPRPRPRPEWVPRP, 0.457; to RRIRYRPPRLPRPRPRPLYEPRP, -0.562. RRIRMRPPRLPRPRPRPPGPPRP: the “shrunken log2 fold change” value worked out at 1.41.

For RRIRERPPRLPRPRPRPCWQPRP, the “shrunken log2 fold change” value was -0.0429. For the sequence RRIRVRPPRLPRPRPRPQYDPRP, the “shrunken log2 fold change” value was -0.729.

As for RRIRDRPPRLPRPRPRPRSVPRP, the “shrunken log2 fold change” value turned out to be 0.165. Turning to RRIRIRPPRLPRPRPRPWCDPRP, the “shrunken log2 fold change” value is -0.769. For RRIRGRPPRLPRPRPRPPWYPRP the value was 0.26; for RRIRERPPRLPRPRPRPCEYPRP, -0.0121; for RRIRVRPPRLPRPRPRPTVNPRP, -0.171. For the sequence RRIRRRPPRLPRPRPRPENEPRP, the “shrunken log2 fold change” value is 0.119. To RRIRNRPPRLPRPRPRPHQPPRP belongs 0.0075.

In the case of RRIRDRPPRLPRPRPRPWIRPRP, the “shrunken log2 fold change” value was -0.24. To RRIRIRPPRLPRPRPRPTPEPRP belongs 0.232; to RRIRARPPRLPRPRPRPPCMPRP, 0.099; to RRIRSRPPRLPRPRPRPNSWPRP, 0.0508. Consider RRIRWRPPRLPRPRPRPPMCPRP, for which the “shrunken log2 fold change” value stood at 0.252.

For the sequence RRIRVRPPRLPRPRPRPPDPPRP, the “shrunken log2 fold change” value was found to be 0.342.
